Reference: patent US20020082273A1, “Agents for use in the treatment of alzheimer's disease” (priority 1998, published 2002)
Values joined by “and” are separate entries in the source; they are usually repeats but may differ in a detail not shown here. Identical values can stand only once.

How the values were obtained:
[1] = Aβ aggregation assay (soluble peptide after centrifugation); type: physicochemical, human
Procedure: Aβ stock was diluted to 2.5 μM in 150 mM NaCl and 20 mM glycine (pH 3-4.5), MES (pH 5-6.2) or HEPES (pH 6.4-8.8), with or without metal ions, incubated (30 min., 37° C.), centrifuged (20 min., 10000 g). The amount of protein in the supernatant was determined by the Micro BCA protein assay as described above.
The resultant aggregated particles were sedimented by centrifugation to permit determination of soluble Aβ1-40 in the supernatant. To determine the centrifugation time required to completely sediment the aggregated particles generated under these conditions, Aβ1-40 was incubated for 30 min at 37° C. with no metal, Zn^2+ (100 μM), Cu^2+ (100 μM) and pH (5.5). Reaction mixtures were centrifuged at 10000 g for different times, or ultracentrifuged at 100000 g for 1 h. (FIG. 1). […] Aβ1-40 was incubated (30 min., 37° C.) with no metal, under acidic conditions (pH 5.5), Zn^2+ (100 μM) or Cu^2+ (100 μM), and centrifuged at 10000 g for different time intervals, or at 100,000 g (ultracentrifuged) for 1 h for comparison. All data points are means ±SD, n=3.
Since the conformational state and solubility of Aβ is altered at different pH (Soto, C., et al., J. Neurochem. 63:1191-1198 (1994)), the effects of [H^+] on Zn^2+- and […] Aβ1-40 aggregation were studied. […] All data points are means ±SD, n=3. [H^+] alone precipitates Aβ1-40 (2.5 μM) as the solution is lowered below pH 7.4, and dramatically once the pH falls below 6.3 (FIG. 4A). At pH 5.0, 80% of the peptide is precipitated, but the peptide is not aggregated by acidic environments below pH 5, confirming and extending earlier reports on the effect of pH on Aβ solubility (Burdick, D., J. Biol. Chem. 267:546-554 (1992)). Zn^2+ (30 μM) induced a constant level (˜50%) of aggregation between pH 6.2-8.5, while below pH 6.0, aggregation could be explained solely by the effect of [H^+].

[2] = Metal reduction assay, Cu^2+ to Cu^+; type: biochemical; details: 10 μM Cu^2+, PBS pH 7.4, 1 hr 37° C.
Procedure: Aβ (10 μM in PBS, pH 7.4 or 6.8, as shown) was incubated for 30 minutes (37° C.) in the presence of Cu^2+10 μM ±Zn^2+ 10 μM). […] levels (n=3, ±SD) were assayed against a standard curve.
Polypeptides (10 μM) or Vitamin C (100 μM), metal ions (10 μM, Fe(NO3)3 or Cu(NO3)2), and reduced metal ion indicators, bathophenanthrolinedisulfonic acid (BP, for Fe^2+, Sigma, 200 μM) or bathocuproinedisulfonic acid (BC, for Cu^+, Sigma, 200 μM), were coincubated in phosphate buffered saline (PBS), pH 7.4, for 1 hr at 37° C. The metal ion solutions were prepared by direct dilution in the buffer from their aqueous stocks purchased from National Institute of Standards and Technology (NIST). […] In control samples, both metal ion and indicator were present to determine the background buffer signal. As a further control, both metal ion and peptide were present in the absence of indicator to estimate the contribution of light scattering due to turbidity to the absorbance reading at these wavelengths. The net absorbances (ΔA) at 536 nm or 483 nm were obtained by deducting the absorbances from these controls from the absorbances generated by the peptide and metal in the presence of the respective indicator.

[3] = Metal reduction assay, Fe^3+ to Fe^2+; type: biochemical; details: 10 μM Fe^3+, PBS pH 7.4, 1 hr 37° C.
Procedure: The metal reduction assay was performed using a 96-well microtiter plate (Costar) based upon a modification of established protocols (Landers, J. W., et al., Amer. Clin. Path. 29:590 (1958); Landers, J. W., et al., Clinica Chimica Acta 3:329 (1958)). Polypeptides (10 μM) or Vitamin C (100 μM), metal ions (10 μM, Fe(NO3)3 or Cu(NO3)2), and reduced metal ion indicators, bathophenanthrolinedisulfonic acid (BP, for Fe^2+, Sigma, 200 μM) or bathocuproinedisulfonic acid (BC, for Cu^+, Sigma, 200 μM), were coincubated in phosphate buffered saline (PBS), pH 7.4, for 1 hr at 37° C. The metal ion solutions were prepared by direct dilution in the buffer from their aqueous stocks purchased from National Institute of Standards and Technology (NIST). Absorbances were then measured at 536 mn (Fe^2+-BP complex) and 483 nm (Cu^+-BC complex), respectively, using a 96-well plate reader (SPECTRAmax 250, Molecular Devices, CA). In control samples, both metal ion and indicator were present to determine the background buffer signal. As a further control, both metal ion and peptide were present in the absence of indicator to estimate the contribution of light scattering due to turbidity to the absorbance reading at these wavelengths. The net absorbances (ΔA) at 536 nm or 483 nm were obtained by deducting the absorbances from these controls from the absorbances generated by the peptide and metal in the presence of the respective indicator.
The concentrations of reduced metal ions (Fe^2+ or Cu^+) were quantified based on the formula: Fe^2+ or Cu^+ (˜M)=A*10^6/(L*M), where L is the measured equivalent vertical pathlength for a well of 300 μL volume as described in the instrument's specifications manual (0.856 cm for Fe^2+; 1.049 cm for Cu^+); M is the known molecular absorbance (M^−1 cm^−1) which is 7124 (for Fe^2+-BP complex) or 2762 (for Cu^+-BC complex).

Aβ1-40: synthetic human Aβ peptide, residues 1-40
available peptide aggregated by Cu^2+ ([1]; Cu^2+ (30 μM), pH 6.8): > 85% and 85%
level of aggregation induced by Zn^2+ ([1]; Zn^2+ 30 μM, pH 6.2-8.5): ~50%
aggregation in the presence of Cu ([1]; pH 7.1): approx. 30%
reduction of available Cu^2+ [2]: 60%
reduction of available Fe^3+ [3]: 12%
